Test results from patent US20230272099A1 (Chugai, published 2023).
Where a chain is given by its changes, count along the chain named.

B1: A375-SCF042a/B167-Lamlib (antibody, human IgG1, lambda)
heavy: EVQLVESGGGLVKPGGSLRLSCAASGFTFSTFTMNWVRQAPGKGLEWVSSISSKSTYIEYADSFKVRFTISRDNAKNSLYLQMNSLRAEDTAVYYCARYGAKNFLNWVFDYWGQGTLVTVSSASTKGPSVFPLAPSSKSTSGGTAALGCLVKDYFPEPVTVSWNSGALTSGVHTFPAVLQSSGLYSLSSVVTVPSSSLGTQTYICNVNHKPSNTKVDKRVEPKSCDKTHTCPPCPAPELLNGPSVFLFPPKPKDTLMISRTPEVTCVVVDVSDEDPEVKFNWYVDGVEVHNAKTKPREEQYNSTYRVVSVLTVLHQDWLNGKEYKCKVSNKALPKPIEKTISKAKGQPREPQVYTLPPSREEMTKNQVSLTCLVKGFYPSDIAVEWESNGQPENNYKTTPPVLDSDGSFFLYSKLTVKKSRWQQGNVFSCSVMHEALHNHYTQKSLSLSP
light: QSALTQPPSASGSPGQTVTISCTGTRYDVGYYEYVSWYQQHPGKAPKLMIYETSKRLSGVPDRFSGSKSGNTASLTVSGLQAEDEADYYCSSYRYEHQVSFGGGTKLTVLGQPKAAPSVTLFPPSSEELQANKATLVCLISDFYPGAVTVAWKADSSPVKAGVETTTPSKQSNNKYAASSYLSLTPEQWKSHRSYSCQVTHEGSTVEKTVAPTECS
notes: copies: 2 + 2
B2: A375-SCF056a/B167-Lamlib (antibody, human IgG1, lambda)
heavy: B1 heavy with Q316R, K418D
light: B1 light
notes: copies: 2 + 2
B3: A375-SCF059a/B167-Lamlib (antibody, human IgG1, lambda)
heavy: B1 heavy with Q316R
light: B1 light
notes: copies: 2 + 2
B4: A375-SCF043aPh/B167-Lamlib (antibody, human IgG1, lambda)
heavy: B1 heavy with L240W, P348R
light: B1 light
B5: A375-SCF057a/B167-Lamlib (antibody, human IgG1, lambda)
heavy: B1 heavy with Q316R, P348R, K418D
light: B1 light
B6: A375-SCF059aPh/B167-Lamlib (antibody, human IgG1, lambda)
heavy: B1 heavy with L240W, Q316R
light: B1 light
notes: copies: 2 + 2
B7: A375-SCF057aPh/B167-Lamlib (antibody, human IgG1, lambda)
heavy: B1 heavy with L240W, Q316R, P348R, K418D
light: B1 light
B8: A375-SCF043a/B167-Lamlib (antibody, human IgG1, lambda)
heavy: B1 heavy with P348R
light: B1 light
B9: A375-SCF056aPh/B167-Lamlib (antibody, human IgG1, lambda)
heavy: B1 heavy with L240W, Q316R, K418D
light: B1 light
notes: copies: 2 + 2

biological target: human FcRn (human, UniProt P55899 24-290; P61769 21-119); assay: SPR 25C pH 6.0, steady state
Sequence (P55899 24-290 limits assumed, chain 1 of 2): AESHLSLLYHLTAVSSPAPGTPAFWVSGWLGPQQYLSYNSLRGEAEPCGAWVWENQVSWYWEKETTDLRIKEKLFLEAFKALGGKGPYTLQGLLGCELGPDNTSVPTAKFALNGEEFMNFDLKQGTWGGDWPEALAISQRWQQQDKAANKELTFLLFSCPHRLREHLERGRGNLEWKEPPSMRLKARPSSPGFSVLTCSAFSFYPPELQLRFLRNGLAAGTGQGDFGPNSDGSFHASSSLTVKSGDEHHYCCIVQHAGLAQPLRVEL
Sequence (P61769 21-119 limits assumed, chain 2 of 2): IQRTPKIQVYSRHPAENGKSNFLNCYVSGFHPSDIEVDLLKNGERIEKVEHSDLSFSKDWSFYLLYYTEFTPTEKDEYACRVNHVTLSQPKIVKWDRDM
How it was run: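 Antibody (~400 RU) captured on anti-Fab-lambda sensor chip, human FcRn injected as analyte.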

Row | Binder | Kd [nM]
1 | B1 | 1490
2 | B2 | 956
3 | B3 | 1030
4 | B4 | 1210
5 | B5 | 928
6 | B6 | 1050
7 | B7 | 909
8 | B8 | 1180
9 | B9 | 1000

biological target: T1, human FcgRIIa type H extracellular domain (human, UniProt P12318 34-217); assay: SPR 25C
T1 construct: extracellular domain; also called hFcgRIIaH
T1 sequence (looked up): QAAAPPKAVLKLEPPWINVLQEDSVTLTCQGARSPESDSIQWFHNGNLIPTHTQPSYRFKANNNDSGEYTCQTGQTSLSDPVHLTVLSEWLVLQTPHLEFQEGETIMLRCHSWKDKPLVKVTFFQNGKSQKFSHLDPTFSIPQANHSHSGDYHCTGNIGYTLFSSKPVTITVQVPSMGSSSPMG

Row | Binder | binding per 1RU antibody [RU] | relative binding (A375-G1T3/B167-Lamlib=1)
10 | B1 | 0.0522 | 0.92
11 | B2 | 0.0529 | 0.93
12 | B3 | 0.0502 | 0.88
13 | B4 | 0.0349 | 0.62
14 | B5 | 0.0525 | 0.93
15 | B6 | 0.0332 | 0.59
16 | B7 | 0.0365 | 0.64
17 | B8 | 0.0552 | 0.97
18 | B9 | 0.0314 | 0.55

biological target: T2, human FcgRIa extracellular domain (human, UniProt P12314 16-292); assay: SPR 25C
T2 construct: extracellular domain; also called hFcgRIa
T2 sequence (P12314 16-292): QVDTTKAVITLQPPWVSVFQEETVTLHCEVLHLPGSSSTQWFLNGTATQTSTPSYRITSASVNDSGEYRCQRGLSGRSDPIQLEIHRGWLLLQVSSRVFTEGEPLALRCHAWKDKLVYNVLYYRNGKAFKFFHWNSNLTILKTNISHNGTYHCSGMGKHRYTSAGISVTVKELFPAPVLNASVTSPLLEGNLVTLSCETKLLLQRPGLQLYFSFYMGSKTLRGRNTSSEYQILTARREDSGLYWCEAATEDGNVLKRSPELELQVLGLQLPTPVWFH

Row | Binder | binding per 1RU antibody [RU] | relative binding (A375-G1T3/B167-Lamlib=1)
19 | B1 | 0.0396 | 0.49
20 | B2 | 0.0395 | 0.49
21 | B3 | 0.038 | 0.47
22 | B4 | 0.0011 | 0.01
23 | B5 | 0.0405 | 0.5
24 | B6 | 0.0089 | 0.11
25 | B7 | 0.0021 | 0.03
26 | B8 | 0.0429 | 0.53
27 | B9 | 0.0019 | 0.02

biological target: T3, human FcgRIIIa F158 extracellular domain (human, UniProt P08637 17-208); assay: SPR 25C
T3 construct: extracellular domain; also called hFcgRIIIaF
T3 sequence (P08637 17-208): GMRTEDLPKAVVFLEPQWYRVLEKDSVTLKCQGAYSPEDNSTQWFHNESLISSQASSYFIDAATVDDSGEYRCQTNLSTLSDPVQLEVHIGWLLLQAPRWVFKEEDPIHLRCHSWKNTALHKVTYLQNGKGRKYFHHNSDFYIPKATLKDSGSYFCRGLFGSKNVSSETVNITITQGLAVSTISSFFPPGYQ

Row | Binder | binding per 1RU antibody [RU] | relative binding (A375-G1T3/B167-Lamlib=1)
28 | B1 | 0.0003 | 0.01
29 | B2 | 0.0011 | 0.05
30 | B3 | 0.001 | 0.05
31 | B4 | 0.0001 | 0
32 | B5 | 0.0013 | 0.06
33 | B6 | 0.0003 | 0.01
34 | B7 | -0.0003 | -0.02
35 | B8 | 0.0011 | 0.05
36 | B9 | 0.001 | 0.05

biological target: T4, human FcgRIIIa V158 extracellular domain (human, UniProt P08637 17-208); assay: SPR 25C
T4 construct: extracellular domain; also called hFcgRIIIaV
T4 sequence (P08637 17-208 F176V): as the sequence (P08637 17-208) above, with F160V counted along it

Row | Binder | binding per 1RU antibody [RU] | relative binding (A375-G1T3/B167-Lamlib=1)
37 | B1 | 0.0014 | 0.02
38 | B2 | 0.0023 | 0.03
39 | B3 | 0.0021 | 0.03
40 | B4 | 0.0001 | 0
41 | B5 | 0.0025 | 0.04
42 | B6 | 0.0028 | 0.04
43 | B7 | 0.0005 | 0.01
44 | B8 | 0.0025 | 0.04
45 | B9 | 0.001 | 0.01

biological target: T5, human FcgRIIb extracellular domain (human, UniProt P31994 43-217); assay: SPR 25C
T5 construct: extracellular domain; also called hFcgRIIb
T5 sequence (looked up): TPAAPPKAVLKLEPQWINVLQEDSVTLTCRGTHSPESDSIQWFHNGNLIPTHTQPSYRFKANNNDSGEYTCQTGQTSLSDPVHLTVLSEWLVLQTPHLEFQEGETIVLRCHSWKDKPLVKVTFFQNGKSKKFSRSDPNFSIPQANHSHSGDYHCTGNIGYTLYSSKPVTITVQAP

Row | Binder | binding per 1RU antibody [RU] | relative binding (A375-G1T3/B167-Lamlib=1)
46 | B1 | 0.0393 | 3.59
47 | B2 | 0.0399 | 3.64
48 | B3 | 0.0358 | 3.27
49 | B4 | 0.0339 | 3.1
50 | B5 | 0.0412 | 3.76
51 | B6 | 0.0291 | 2.66
52 | B7 | 0.0345 | 3.15
53 | B8 | 0.0419 | 3.82
54 | B9 | 0.0292 | 2.67

biological target: T6, human FcgRIIa type R extracellular domain (human, UniProt P12318 34-217); assay: SPR 25C
T6 construct: extracellular domain; also called hFcgRIIaR
T6 sequence (looked up): T1 sequence (looked up) with H134R

Row | Binder | binding per 1RU antibody [RU] | relative binding (A375-G1T3/B167-Lamlib=1)
55 | B1 | 0.0327 | 0.71
56 | B2 | 0.0331 | 0.71
57 | B3 | 0.0319 | 0.69
58 | B4 | 0.0349 | 0.75
59 | B5 | 0.0367 | 0.79
60 | B6 | 0.0319 | 0.69
61 | B7 | 0.0364 | 0.79
62 | B8 | 0.0361 | 0.78
63 | B9 | 0.0299 | 0.64
